For the assay, the target named is human Retinoblastoma-1 (RB) pocket domain (human) (UniProt P06400). Kind of assay: SPR. On the technique in general: In SPR one partner is held on a chip, and binding of the other changes the refractive index at the surface.
Chain of human Retinoblastoma-1 (RB) pocket domain (human) (P06400 373-771): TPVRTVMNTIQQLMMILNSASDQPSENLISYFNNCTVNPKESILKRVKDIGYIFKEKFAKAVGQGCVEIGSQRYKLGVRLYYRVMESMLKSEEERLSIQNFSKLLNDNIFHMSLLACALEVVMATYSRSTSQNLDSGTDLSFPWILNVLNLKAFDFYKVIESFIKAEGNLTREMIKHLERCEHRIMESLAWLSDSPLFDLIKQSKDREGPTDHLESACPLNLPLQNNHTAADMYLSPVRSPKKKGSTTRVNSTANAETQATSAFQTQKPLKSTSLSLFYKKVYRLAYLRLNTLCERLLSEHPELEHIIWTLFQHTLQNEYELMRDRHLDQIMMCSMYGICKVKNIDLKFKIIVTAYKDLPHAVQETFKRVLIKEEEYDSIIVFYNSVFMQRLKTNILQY

Regarding “full-length, recombinant TpGcpE protein (TpMuguga_02g00667) (natural protein)”, the dissociation constant (Kd) (as a rule, the concentration at which binding is half-saturated) came out at 0.0187 µM.
